Test results taken from EP1674575A2 (LA JOLLA INSTITUTE FOR ALLERGY AND IMMUNOLOGY, dated 2006).

B2: mouse LTβR:Fc (amino acid residues 1 to Met221 of the extracellular domain of mouse LTβR) (Fc fusion, UniProt P50284 31-221, looked up)
chain: QLVPPYRIENQTCWDQDKEYYEPMHDVCCSRCPPGEFVFAVCSRSQDTVCKTCPHNSYNEHWNHLSTCQLCRPCDIVLGFEEVAPCTSDRKAECRCQPGMSCVYLDNECVHCEEERLVLCQPGTEAEVTDEIMDTDVNCVPCKPGHFQNTSSPRARCQPHTRCEIQGLVEAAPGTSYSDTICKNPPEPGAM
notes: range 1-221; also called mLTβR:Fc; murine LTβR:Fc; not shown: Fc part
B4: LIGHTt66-FLAG mutant Y173F (ligand, human, UniProt O43557 67-240, looked up, not shown: small tags and cut ends)
chain: EMVTRLPDGPAGSWEQLIQERRSHEVNPAAHLTGANSSLTGSGGPLLWETQLGLAFLRGLSYHDGALVVTKAGYYYIYSKVQLGGVGCPLGLASTITHGLYKRTPRFPEELELLVSQQSPCGRATSSSRVWWDSSFLGGVVHLEAGEKVVVRVLDERLVRLRDGTRSYFGAFMV
notes: range 67-240; Homotrimer, from transiently transfected 293T cells
B6: LIGHTt66-FLAG mutant L120Q (ligand, human, UniProt O43557 67-240, looked up, not shown: small tags and cut ends)
chain: EMVTRLPDGPAGSWEQLIQERRSHEVNPAAHLTGANSSLTGSGGPLLWETQLGQAFLRGLSYHDGALVVTKAGYYYIYSKVQLGGVGCPLGLASTITHGLYKRTPRYPEELELLVSQQSPCGRATSSSRVWWDSSFLGGVVHLEAGEKVVVRVLDERLVRLRDGTRSYFGAFMV
notes: as for B4
B7: LIGHTt66-FLAG mutant Q117T (ligand, human, UniProt O43557 67-240, looked up, not shown: small tags and cut ends)
chain: EMVTRLPDGPAGSWEQLIQERRSHEVNPAAHLTGANSSLTGSGGPLLWETTLGLAFLRGLSYHDGALVVTKAGYYYIYSKVQLGGVGCPLGLASTITHGLYKRTPRYPEELELLVSQQSPCGRATSSSRVWWDSSFLGGVVHLEAGEKVVVRVLDERLVRLRDGTRSYFGAFMV
notes: as for B4
B8: HVEM:Fc (extracellular region of HVEM, 1 to K184, fused to the Fc region of human IgG1) (Fc fusion, UniProt Q92956 39-184, looked up)
chain: LPSCKEDEYPVGSECCPKCSPGYRVKEACGELTGTVCEPCPPGTYIAHLNGLSKCLQCQMCDPAMGLRASRNCSRTENAVCGCSPGHFCIVQDGDHCAACRAYATSSPGQRVQKGGTESQDTLCQNCPPGTFSPNGTLEECQHQTK
notes: range 1-184; Bivalent chimeric protein made in baculovirus; also called huHVEM:Fc; hu HVEM:Fc; not shown: Fc region of human IgG1

Tests used:
[1] = molecular target: LTβR (lymphotoxin β receptor) expressed by cells (human, UniProt P36941 31-435); assay: cell-based or functional assay
[2] = molecular target: T1, LTα1β2 complex (LTβ 33 kDa and LTα 23-25 kDa) from detergent extracts of PMA activated II-23.D7 cells (human, UniProt P01374 35-205; Q06643 1-244); assay: precipitation with murine LTβR:Fc, 2D electrophoresis (Figure 4A)
T1 construct: Endogenous membrane complex, precipitated from detergent extracts; also called LTβ and LTα complex
T1 sequence (looked up) 1: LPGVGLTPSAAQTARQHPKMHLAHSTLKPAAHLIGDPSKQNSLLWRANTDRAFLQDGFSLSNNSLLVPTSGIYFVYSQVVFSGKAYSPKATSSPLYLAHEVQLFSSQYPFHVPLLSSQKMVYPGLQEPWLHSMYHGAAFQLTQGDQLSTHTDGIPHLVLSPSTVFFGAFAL
T1 sequence (looked up) 2: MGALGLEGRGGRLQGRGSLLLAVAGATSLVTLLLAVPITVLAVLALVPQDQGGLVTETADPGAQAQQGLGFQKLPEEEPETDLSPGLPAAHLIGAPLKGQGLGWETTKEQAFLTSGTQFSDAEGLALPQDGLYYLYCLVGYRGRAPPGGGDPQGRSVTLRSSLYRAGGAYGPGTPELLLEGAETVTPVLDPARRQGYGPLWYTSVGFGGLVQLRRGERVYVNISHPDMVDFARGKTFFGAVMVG

[3] = molecular target: T2, p30 (LIGHT), the 30 kDa cell surface HVEM ligand of activated II-23.D7 cells and human T cells (human, UniProt O43557 1-240); assay: competition for HVEM:Fc binding to activated II-23.D7 cells, flow cytometry
T2 construct: whole, on cells; Endogenous protein, tested on the cell surface in flow cytometry and from detergent extracts in precipitations; also called 30 kDa protein

human LTβR:Fc = molecular target: T3, human LTβR:Fc (human, UniProt P36941 31-227, limits assumed); assay: SPR (BIAcore), receptor:Fc amine-coupled, LIGHT mutant as analyte 100-500 nM
T3 construct: also called huLTβR:Fc; hu LTβR:Fc; not shown: Fc region of human IgG1

[4] = molecular target: B8; assay: SPR (BIAcore)
[5] = molecular target: B2; assay: ELISA, receptor:Fc capture, anti-FLAG detection
[6] = molecular target: B6; assay: ELISA, receptor:Fc capture, anti-FLAG detection
[7] = molecular target: B4; assay: ELISA, receptor:Fc capture, anti-FLAG detection
[8] = molecular target: B7; assay: SPR (BIAcore), receptor:Fc amine-coupled, LIGHT mutant as analyte 100-500 nM
[9] = molecular target: B4; assay: as above
[10] = molecular target: B4; assay: SPR (BIAcore)
[11] = molecular target: T2, p30 (LIGHT), the 30 kDa cell surface …; assay: flow cytometry, saturation binding to activated II-23.D7 cells
LTαTyr108Phe = molecular target: T4, LTαTyr108Phe (UniProt P01374 35-205); assay: competition for HVEM:Fc binding to II-23.D7 cells, flow cytometry (Figure 3)
T4 construct: also called LTαY108F; Y108F
T4 sequence (looked up): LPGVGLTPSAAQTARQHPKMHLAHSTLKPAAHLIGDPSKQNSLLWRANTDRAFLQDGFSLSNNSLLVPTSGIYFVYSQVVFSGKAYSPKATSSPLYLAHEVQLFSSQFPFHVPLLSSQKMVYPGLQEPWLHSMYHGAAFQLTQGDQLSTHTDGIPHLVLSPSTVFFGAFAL

TNF = molecular target: T5, TNF (UniProt P01375 77-233); assay: precipitation of 35S-labeled secreted proteins of II-23.D7 cells, SDS-PAGE
T5 construct: also called TNF (17 kDa)

LTα homotrimer = molecular target: T6, LTα homotrimer (UniProt P01374 35-205); assay: precipitation of 35S-labeled secreted proteins, SDS-PAGE
T6 construct: also called recombinant LTα; secreted LTα
T6 sequence (looked up): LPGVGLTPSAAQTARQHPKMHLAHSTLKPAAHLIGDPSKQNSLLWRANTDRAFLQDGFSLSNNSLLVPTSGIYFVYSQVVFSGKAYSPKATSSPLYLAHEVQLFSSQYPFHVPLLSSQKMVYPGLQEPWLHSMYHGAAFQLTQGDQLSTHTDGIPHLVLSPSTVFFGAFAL

[12] = molecular target: T2, p30 (LIGHT), the 30 kDa cell surface …; assay: precipitation from detergent extracts of activated II-23.D7 cells; competition by flow cytometry
gD-1 (Δ290-299t) = molecular target: T7, gD-1 (Δ290-299t) (herpes simplex virus type 1, UniProt Q69091 26-331); assay: binding inhibition, flow cytometry
T7 construct: also called gD-1 (Δ1290 - 299t)
T7 sequence (Q69091 26-314, tags or fused parts left off): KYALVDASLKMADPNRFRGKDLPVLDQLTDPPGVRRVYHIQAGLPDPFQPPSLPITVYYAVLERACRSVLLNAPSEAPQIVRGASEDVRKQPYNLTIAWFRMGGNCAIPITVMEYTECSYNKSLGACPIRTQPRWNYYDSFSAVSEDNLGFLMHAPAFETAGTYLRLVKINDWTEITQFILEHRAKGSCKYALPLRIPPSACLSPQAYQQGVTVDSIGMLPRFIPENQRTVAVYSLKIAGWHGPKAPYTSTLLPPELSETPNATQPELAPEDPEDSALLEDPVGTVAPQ

T3 sequence (P36941 31-227 limits assumed): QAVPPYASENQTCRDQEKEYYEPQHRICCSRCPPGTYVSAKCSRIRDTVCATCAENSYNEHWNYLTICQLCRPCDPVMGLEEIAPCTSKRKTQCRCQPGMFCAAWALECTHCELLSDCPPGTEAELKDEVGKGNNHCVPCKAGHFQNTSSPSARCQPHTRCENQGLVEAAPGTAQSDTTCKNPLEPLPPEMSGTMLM
T5 sequence (P01375 77-233 limits assumed): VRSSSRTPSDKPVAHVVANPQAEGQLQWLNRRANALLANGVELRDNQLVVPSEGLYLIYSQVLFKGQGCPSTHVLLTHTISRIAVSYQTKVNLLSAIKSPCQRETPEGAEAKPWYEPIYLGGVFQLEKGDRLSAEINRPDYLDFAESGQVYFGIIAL

B1: recombinant soluble LTα1β2 (ligand)
chain 1: LPGVGLTPSAAQTARQHPKMHLAHSTLKPAAHLIGDPSKQNSLLWRANTDRAFLQDGFSLSNNSLLVPTSGIYFVYSQVVFSGKAYSPKATSSPLYLAHEVQLFSSQYPFHVPLLSSQKMVYPGLQEPWLHSMYHGAAFQLTQGDQLSTHTDGIPHLVLSPSTVFFGAFAL
chain 2: QDQGGLVTETADPGAQAQQGLGFQKLPEEEPETDLSPGLPAAHLIGAPLKGQGLGWETTKEQAFLTSGTQFSDAEGLALPQDGLYYLYCLVGYRGRAPPGGGDPQGRSVTLRSSLYRAGGAYGPGTPELLLEGAETVTPVLDPARRQGYGPLWYTSVGFGGLVQLRRGERVYVNISHPDMVDFARGKTFFGAVMVG
For B1, the “fold decrease in relative anti-HCMV activity (against LTα and LIGHT)” value [1] was ~10 fold.

B2: binds [2].

B3: Fas:Fc (Fc fusion, UniProt P25445 26-173, looked up)
chain: QVTDINSKGLELRKTVTTVETQNLEGLHHDGQFCHKPCPPGERKARDCTVNGDEPDCVPCQEGKEYTDKAHFSSKCRRCRLCDEGHGLEVEINCTRTQNTKCRCKPNFFCNSTVCEHCDPCTKCEHGIIKECTLTSNTKCKEEGSRSN
notes: not shown: Fc region of human IgG1
B3: no binding [3].

B4 gave a Kd (human LTβR:Fc) of 31 nM, a koff (human LTβR:Fc) of 0.0011 s⁻¹ and a kon (human LTβR:Fc) of 37000 M⁻¹ s⁻¹. The “fold lower affinity than LIGHT t66” value [4] was > 40 fold, the “fold induction of ICAM expression by NHDF cells (flow cytometry, 20 nM)” value [1] was 2.5 fold and the binding result [5] was “no binding”.

B5: mouse HVEM:Fc (mouse HVEM Met1 to Ser205 fused to the Fc region of human IgG1) (Fc fusion, UniProt Q80WM9 39-205, looked up)
chain: QPSCRQEEFLVGDECCPMCNPGYHVKQVCSEHTGTVCAPCPPQTYTAHANGLSKCLPCGVCDPDMGLLTWQECSSWKDTVCRCIPGYFCENQDGSHCSTCLQHTTCPPGQRVEKRGTHDQDTVCADCLTGTFSLGGTQEECLPWTNCSAFQQEVRRGTNSTDTTCSS
notes: range 1-205; also called mHVEM:Fc; murine HVEM:Fc; not shown: Fc region of human IgG1 (printed IgC1) at the 3' end of the HVEM insert
B5: binds [6]; no binding [7].

B6: binds [5].

With B7 the Kd (human LTβR:Fc) was 1.5 nM and the koff (human LTβR:Fc) was 4.5e-05 s⁻¹.

B8 gave a Kd [8] of 0.3 nM, a kon [8] of 20000 M⁻¹ s⁻¹ and a Kd [9] of 173 nM. For the same binder, the koff [9] was 0.0033 s⁻¹, the kon [9] was 19000 M⁻¹ s⁻¹ and the Kd [10] was 180 nM. The EC50 [11] was ~20 nM, the binding result (LTαTyr108Phe) was “no binding” and the binding result (TNF) was “no binding”. B8: binds (LTα homotrimer).

B9: TNFR60:Fc (Fc fusion, UniProt P19438 30-211, looked up)
chain: LVPHLGDREKRDSVCPQGKYIHPQNNSICCTKCHKGTYLYNDCPGPGQDTDCRECESGSFTASENHLRHCLSCSKCRKEMGQVEISSCTVDRDTVCGCRKNQYRHYWSENLFQCFNCSLCLNGTVHLSCQEKQNTVCTCHAGFFLRENECVSCSNCKKSLECTKLCLPQIENVKGTEDSGTT
notes: also called TNFR:Fc; soluble type I TNFR protein (TNFR:Fc); not shown: Fc region of human IgG1
B9: no binding [12]; no binding (gD-1 (Δ290-299t)).
